Numbering of substitutions follows the chain as printed.

Test [1] deals with T1, human 0N4R tau with the P301L mutation (expressed in JNPL3 tau transgenic mice) (human, UniProt P10636 1-758).
T1 construct: Tested as inclusions in spinal cord sections of JNPL3 mice; also called tau inclusions of JNPL3 mice
The experiment in a line: immunohistochemistry of spinal cord sections. As to the method:
Paraffin embedded tissues from JNPL3 tau transgenic, PS19 tau-transgenic and non-transgenic (NTg) mice were used. All paraffin embedded, formalin fixed human brain tissues from de-identified donors were obtained through a human brain tissue bank. Sequential tissue sections were deparaffinized with xylenes and sequentially rehydrated with graded ethanol solutions (100-70%). Antigen retrieval was performed by incubating sections in a steam bath for 30 minutes. Endogenous peroxidase activity was quenched with 1.5% hydrogen peroxide/0.005% Triton-X-100/Tris-buffered Saline (TBS) for 20 minutes. Sections were blocked with 2.5% horse serum then incubated overnight at 4° C. with primary antibody. Following washing with TBS, sections were incubated with Vector ImmPress anti-mouse IgG peroxidase (Vector Laboratories, Burlingame, Calif., USA) for 30 minutes. Sections were washed with TBS and then developed with 3, 3′diaminobenzidine (DAB kit; Vector Laboratories). Reactions were stopped by immersing the slides in TBS and sections were counterstained with Mayer's hematoxylin (Sigma Aldrich, St. Louis, Mo.). Next, sections were dehydrated with an ascending series of ethanol solutions (70%-100%) followed by xylenes and coverslipped using cytoseal (Thermo Scientific, Waltham, Mass.).
Each of the 83E4, 94-3A2-2, 94-3A6 and 94-4F1 binds R4 and can recognize 3- and 4-repeat tau. […]

Test [2] concerns the target Aβ (UniProt P05067 672-713). The experiment in a line: ELISA screening of hybridoma media on coated peptide. As to the method:
(§1) All hybridoma clones were screened for reactivity to K18 by enzyme-linked immunosorbent assay (ELISA). MaxiSorp plates (Thermo Scientific, Waltham, Mass.) or Immulon 4HBX plates (ThermoFisher Scientific, Waltham, Mass.) were coated with 1 μg/ml human recombinant tau or αS proteins or Aβ in PBS or 100 mM sodium bicarbonate and blocked with 5% FBS/PBS or 1% Block ACE in PBS. Media from the hybridomas were applied to plates, which were then incubated at room temperature for 3 hours. Next, the plates were washed with PBS and incubated with goat anti-mouse secondary antibody conjugated to horse radish peroxidase (HRP; Jackson Immuno Research Labs, West Grove, Pa.) for 1 hour at room temperature. Then, plates were washed and TMB substrates (Pierce, Rockford, Ill.) were applied until color changes were observed. Reactions were then quenched with 1M HCl or 85% 0-Phosphoric acid and absorbance was measured at 450 nm. Clones that were positive by ELISA were transferred to larger culture plates as needed. […]
(§2) Mice were immunized with the synthetic peptides corresponding to the MTBD in 4R human tau 244-372 (K18) conjugated to 21-140 αS at the N-terminus or 21-140 αS at the N-terminus and Aβ1-42 at the C-terminus. […] The specificity of these monoclonal antibodies was further determined by probing immunoblots of recombinant full-length human 2N/3R and 2N/4R tau and K18 (4R) tau fragment (FIG. 2). […]

In test [3] the target is T2, human 1N4R tau with the P301S mutation (expressed in PS19 tau transgenic mice) (human, UniProt P10636 1-758).
T2 construct: Tested in total brain lysates (immunoblot) and spinal cord sections (immunohistochemistry) of PS19 mice; also called human tau in PS19 mice; over-expressed 1N4R human tau in PS19 brain
The test is described as follows: immunoblot of total mouse brain lysates. As to the method:
Preparation of total mouse brain protein lysates Tau KO, PS19 Tg or NTg mice were euthanized by CO₂ inhalation and the brains were harvested. Brain tissue was homogenized in 2% SDS/50 mM Tris, pH 7.5 using a probe sonicator and then incubated for 10 min at 100° C. Protein concentrations were determined by BCA assay using BSA as the standard. Sample buffer was added and equal amounts of protein (10 μg) were resolved by SDS-PAGE and analyzed by immunoblot.
To assess the selectivity of these antibodies for human tau, immunoblots of total mouse brain lysates from tau KO, NTg and PS19 tau Tg mice were probed with these antibodies (FIG. 3). All of these antibodies detected human tau in whole brain lysates from PS19 mice. Antibodies 81A11, 83E4 and 94-3A2-2 reacted weakly with endogenous tau in NTg mice. […] All the antibodies were specific for tau as shown using the lysates from tau KO mice. A non-specific band at approximately 30 kDa present in all the lysates was attributed to non-specific binding of the secondary antibody shown with an immunoblot probed only with secondary antibody.
A general note: A western blot detects proteins with antibodies after separation by electrophoresis.

The target of test [4] is recombinant human α-synuclein (human, UniProt P37840 1-140). The experiment in a line: ELISA screening of hybridoma media on coated protein. As for the experimental part:
as §1, §2
On the technique in general: In an ELISA, binding on a coated surface is turned into a signal by an enzyme label.

Test [5] deals with T3, recombinant glutathione S-transferase (GST) tagged human tau MTBD R4 (human).
T3 construct: Expressed in E. coli; total bacterial lysates were blotted after SDS-PAGE; also called GST/R4; not shown: glutathione S-transferase (GST) tag encoded by bacterial expression plasmid pGEX-2T; junction
T3 chain: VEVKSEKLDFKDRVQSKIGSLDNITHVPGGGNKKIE
The test is described as follows: summary of immunoblots of GST-tagged MTBD fragments. An excerpt:
For the generation of recombinant glutathione S-transferases (GST) tagged human MTBD R1-3 (residues 244-336 relative to ON/4R tau), R1 (residues 244-274 relative to ON/4R tau), R3 (residues 306-336 relative to ON/4R tau) and R4 (residues 337-372 relative to ON/4R tau) proteins, the corresponding cDNA sequences were amplified by PCR with the respective oligonucleotides with added BamHI and EcoRI restriction sites and cloned in these sites of bacterial expression plasmid pGEX-2T. These proteins were expressed in E. coli BL21 (DE3)/RIL with isopropyl β-D-1-thiogalactopyranoside induction. The bacteria were lysed with 2% SDS and following the addition of SDS sample buffer equal amounts of total bacterial lysates were resolved by SDS-PAGE and analyzed by immunoblotting.
Mice were immunized with the synthetic peptides corresponding to the MTBD in 4R human tau 244-372 (K18) conjugated to 21-140 αS at the N-terminus or 21-140 αS at the N-terminus and Aβ1-42 at the C-terminus. […] This selectivity for tau was also confirmed by detection of tau pathology by immunohistochemistry of human AD post-mortem brain tissue with abundant tau pathology. […] The specificity of these monoclonal antibodies was further determined by probing immunoblots of recombinant full-length human 2N/3R and 2N/4R tau and K18 (4R) tau fragment (FIG. 2). […]

Test [6] concerns the target T4, recombinant full-length human 2N/4R tau (human, UniProt P10636 2-758).
T4 construct: Expressed in E. coli from pRK172 and purified; also called 4-repeat tau
The test is described as follows: immunoblot of recombinant tau proteins.

Test [7] addresses T5, recombinant full-length human 2N/3R tau (human, UniProt P10636 2-758).
T5 construct: Expressed in E. coli from pRK172 and purified; also called 3-repeat tau
The experiment in a line: immunoblot of recombinant tau proteins.

T2 sequence (P10636 other isoform, or with tags, fused parts or gaps P301S P301S limits assumed): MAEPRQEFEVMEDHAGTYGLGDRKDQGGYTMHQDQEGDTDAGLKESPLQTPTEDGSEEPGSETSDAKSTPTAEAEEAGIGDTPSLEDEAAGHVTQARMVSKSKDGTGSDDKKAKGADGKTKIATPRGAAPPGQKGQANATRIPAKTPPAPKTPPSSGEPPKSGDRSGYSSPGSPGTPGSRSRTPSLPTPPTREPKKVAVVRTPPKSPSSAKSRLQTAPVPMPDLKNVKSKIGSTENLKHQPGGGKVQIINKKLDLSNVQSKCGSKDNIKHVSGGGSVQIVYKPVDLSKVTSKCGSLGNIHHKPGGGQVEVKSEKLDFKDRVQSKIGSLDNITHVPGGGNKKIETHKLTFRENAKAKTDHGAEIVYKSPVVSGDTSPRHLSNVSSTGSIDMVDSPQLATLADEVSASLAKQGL
Chain of Aβ (P05067 672-713): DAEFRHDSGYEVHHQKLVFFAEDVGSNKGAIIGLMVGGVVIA
T5 sequence (P10636 other isoform, or with tags, fused parts or gaps limits assumed): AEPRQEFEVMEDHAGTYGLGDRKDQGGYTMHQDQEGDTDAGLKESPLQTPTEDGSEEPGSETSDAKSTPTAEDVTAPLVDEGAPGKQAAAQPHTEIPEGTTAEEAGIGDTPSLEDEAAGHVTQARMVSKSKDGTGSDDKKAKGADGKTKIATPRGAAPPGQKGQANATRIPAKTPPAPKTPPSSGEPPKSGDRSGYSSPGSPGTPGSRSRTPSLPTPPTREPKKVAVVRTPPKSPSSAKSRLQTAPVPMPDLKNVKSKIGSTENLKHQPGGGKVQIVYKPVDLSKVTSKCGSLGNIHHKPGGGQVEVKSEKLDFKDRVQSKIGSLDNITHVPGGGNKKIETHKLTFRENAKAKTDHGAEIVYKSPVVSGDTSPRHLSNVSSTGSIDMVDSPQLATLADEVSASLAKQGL
T1 sequence (P10636 other isoform, or with tags, fused parts or gaps P301L P301L limits assumed): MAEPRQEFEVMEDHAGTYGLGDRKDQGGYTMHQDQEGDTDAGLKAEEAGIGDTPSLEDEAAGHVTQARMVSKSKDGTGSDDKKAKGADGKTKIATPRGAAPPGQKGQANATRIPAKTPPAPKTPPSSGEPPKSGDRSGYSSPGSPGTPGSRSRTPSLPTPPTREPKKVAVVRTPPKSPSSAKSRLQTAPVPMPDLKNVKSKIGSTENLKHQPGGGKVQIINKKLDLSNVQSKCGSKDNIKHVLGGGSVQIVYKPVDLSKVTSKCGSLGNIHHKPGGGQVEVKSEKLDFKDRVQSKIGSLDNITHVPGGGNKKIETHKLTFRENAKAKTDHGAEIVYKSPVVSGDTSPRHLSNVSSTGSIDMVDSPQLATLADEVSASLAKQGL
T4 sequence (P10636 other isoform, or with tags, fused parts or gaps limits assumed): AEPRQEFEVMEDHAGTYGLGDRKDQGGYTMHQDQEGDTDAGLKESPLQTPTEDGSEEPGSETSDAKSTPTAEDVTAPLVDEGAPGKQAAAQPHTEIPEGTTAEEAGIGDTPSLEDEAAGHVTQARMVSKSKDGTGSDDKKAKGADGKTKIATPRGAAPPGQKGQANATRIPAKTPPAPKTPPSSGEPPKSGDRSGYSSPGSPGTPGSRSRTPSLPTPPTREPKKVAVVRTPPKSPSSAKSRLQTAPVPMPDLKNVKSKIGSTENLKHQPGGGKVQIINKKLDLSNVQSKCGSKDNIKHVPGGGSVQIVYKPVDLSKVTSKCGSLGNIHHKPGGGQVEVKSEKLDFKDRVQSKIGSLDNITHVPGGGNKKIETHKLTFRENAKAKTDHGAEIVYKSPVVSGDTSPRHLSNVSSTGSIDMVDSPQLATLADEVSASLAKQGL

B1: monoclonal antibody 94-3A2-2 (antibody, V domains shown)
VH: QVQLQQSGAELAKPGASVKMSCKASGYTFTTYWMHWIKQRPGQGLEWIGYINPSNDYTEYNQKFKDEATLTVDKSSSTAYMQLNSLISEDSAVYYCAHPAYWGQGTLVTVSS
VL: ENVLTQSPAIMSASPGEKVTMTCSASSSVNYMHWYQQKSGTSPKLWIYDTSKLASGVPGRFSGSGSGNSYSLTISSMEAEDVATYYCFQGSGYPFTFGSGTKLEIKR
As for B1, the binding result in test [1] is recorded as “binds”; in test [2] it was “no binding”; in test [3], “binds”; in test [4], “no binding”; in test [5], “binds”; in test [6] it was “binds”. The binding result in test [7] is “binds”.

B2: monoclonal antibody 94-3A6 (antibody, V domains shown)
VH: QVQLQQPGTELVKPGASVKLSCKASGYPFTNYWMHWVKQRPGQGLEWIGNINPTNGDTNYNEKFKSKATLTVDKSSSTAYMQLSSLTSEDSAVYYCTRVTYWGQGTTLTVSS
VL: B1 VL with S28N, Y35F, K38E, G40S, F95Y, S99G
Regarding B2, the binding result is “binds” in test [1]; “no binding” in test [2]; “binds” in test [3]; “no binding” in test [4]; “binds” in test [5]; “binds” in test [6]. Moreover, the binding result in test [7] is on record as “binds”.

Values taken from US20210070847A1 (UNIVERSITY OF FLORIDA RESEARCH FOUNDATION, published 2021).
